We go through four molecules from patent publication US20250340623A1 (AC IMMUNE, published 2025).

One test deals with T1, 82-96aa.
T1 construct: also called alpha-synuclein peptide 82-96
T1 peptide: {Biotin-Ahx}-VEGAGSIAAATGFVK
The test is described as follows: indirect ELISA on biotinylated 15-mer peptide. The procedure:
(§1) Serum-free supernatants were harvested from stable hybridomas. The supernatants containing antibodies of interest were then screened by an indirect ELISA assay to determine epitopes. Epitopes were first determined using a library of 15-mer peptides covering the entire sequence of human alpha-synuclein protein, spanning amino acids (aa) 1-140 with 9aa offset and […] overlap. […] Briefly, streptavidin-coated ELISA plates were blocked overnight at 4° C. […] Plates were washed with PBS/0.05% Tween®20 and then incubated with the hybridoma supernatants at 1/100 dilution for 1 hour at 25° C.

In the next test the target is T2, 91-105aa.
T2 peptide: {Biotin-Ahx}-ATGFVKKDQLGKNEE
Nature of the test: indirect ELISA on biotinylated 15-mer peptide. The protocol: as §1

A further test has as its target T3, 118-132aa.
T3 peptide: {Biotin-Ahx}-VDPDNEAYEMPSEEG
The test is described as follows: indirect ELISA on biotinylated 15-mer peptide. The procedure: as §1

The next test has as its target T4, 1-14aa.
T4 construct: also called alpha-synuclein peptide 1-14
T4 peptide: MDVFMKGLSKAKEG-biotin
Nature of the test: indirect ELISA on biotinylated 15-mer peptide. The protocol: as §1

The next test deals with T5, 1-15aa.
T5 construct: also called alpha-synuclein peptide 1-15
T5 peptide: {Biotin-Ahx}-MDVFMKGLSKAKEGV
Nature of the test: indirect ELISA on biotinylated 15-mer peptide. The protocol: as §1

The next test deals with T6, 10-24aa.
T6 construct: also called alpha-synuclein peptide 10-24
T6 peptide: {Biotin-Ahx}-KAKEGVVAAAEKTKQ
Nature of the test: indirect ELISA on biotinylated 15-mer peptide. The procedure: as §1

For a further test, the target named is T7, 46-60aa.
T7 construct: also called alpha-synuclein peptide 46-60
T7 peptide: {Biotin-Ahx}-EGVVHGVATVAEKTK
Nature of the test: indirect ELISA on biotinylated 15-mer peptide. The procedure:
as §1

The next test addresses T8, 127-140aa.
T8 peptide: {Biotin-Ahx}-MPSEEGYQDYEPEA
The test is described as follows: indirect ELISA on biotinylated 15-mer peptide, supernatant 1/100. The procedure:
as §1

Where no end group is shown, it is not given here. The star is where a group is joined. Biotin = O=C1N[C@H]2[C@H](CS[C@H]2CCCCC(=O)*)N1; Ahx = NCCCCCC(=O)O

B1: ACI-7079-2602G4-Ab4 (antibody, V domains shown)
VH: EVQLVESGGGLVQPKGSLKLSCAASGFTFKTYAMHWVRQAPGKGLEWVARIRSKGSDYATYYADSVKDRFTISRDDSQSMLYLQMNNLKTEDTAMYFCVRGGADSWFAYWGQGTLVTVST
VL: QIVLTQSPAIMSASPGERITMTCTASSSVSYMHWYQQKSGTSPKRWIYDTSKLASGVPARFSGSGSGASYTLTISSMEAEDAATYYCQQWNRNPPTFGGGTQLAIK
notes: mouse hybridoma mAb; VH/VL only; also called 2602G4H1
B1: the binding result with 82-96aa, in the test with 91-105aa, in the test with 118-132aa, in the test with 1-14aa, in the test with 1-15aa and with 10-24aa was “no binding (tested: supernatant 1/100)” each time. Moreover, the binding result is listed as “no binding (tested: supernatant 1/100)” with 46-60aa and “binds” with 127-140aa.

B2: ACI-7079-2603F3-Ab1 (antibody, V domains shown)
VH: EVQLVESGGGLVQPKGSLKLSCAASGFTFNTYAMHWVRQAPGKGLEWVARIRSKGSNYATYYADSVKDRFTISRDDSQSMLYLQMNNLKTEDTAMYYCVRGGGDSWFAYWGQGTLVTVSA
VL: QIVLTQSPAIMSASPGERVTMTCTASSSVSYMHWYQQKSGTSPKRWIYDTSKLASGVPARFSGSGSGASYTLTISSMEAEDAATYYCQQWNSNPPTFGGGTQLAIK
notes: mouse hybridoma mAb; VH/VL only; also called 2603F3H3
Take B2: the binding result with 82-96aa, with 91-105aa, in the test with 118-132aa, in the test with 1-14aa, with 1-15aa and in the test with 10-24aa was “no binding (tested: supernatant 1/100)” in each case. Besides, the figures for the binding result in the test with 46-60aa and with 127-140aa were “no binding (tested: supernatant 1/100)” and “binds”, respectively.

B3: ACI-7079-2501D10-Ab1 (antibody, V domains shown)
VH: EVQLVESGGGLVQPKGSLKVSCAASGFTFKTYAMHWVRQAPGKGLEWVARIRSENSNFAKYYADSVKDRFTISRDDSQSMLYLQMNNLKTEDTAMYYCVRGYNGSSLDYWGQGTTLTVSS
VL: QIVLTQSPAIMSAFPGERVTMTCSASSSVNYMHWYQQKSGTSPKRWIYDTSKLASGVPARFSGGGSGTSYSLTISNMEAEDAATYYCQQWRSNPPTFGGGTKLEIK
notes: mouse hybridoma mAb; VH/VL only; also called 2501D10C3
As to B3, the binding result with 82-96aa, with 91-105aa, in the test with 118-132aa, with 1-14aa, with 1-15aa and with 10-24aa was “no binding (tested: supernatant 1/100)” each time. Further, the binding result with 46-60aa is recorded as “no binding (tested: supernatant 1/100)”; with 127-140aa it was “binds”.

B4: ACI-7079-2507B3-Ab1 (antibody, V domains shown)
VH: EVQLVESGGGLVQPKGSLKVSCAASGFTFKTYAMHWVRQAPGKGLEWVARIRSENSNFAKYYADSVKDRFTISRDDSQSMLYLQMHTLKTEDTAIYYCVRGYNGSSLDYWGQGTTLTVSS
VL: QIVLTQSPAIMSAFPGERVTMTCSASSSVNYMHWYQQKSGTSPKRWIYDTSKLASGVPARFSGGGSGTSYSLTISNMEAEDAATYYCQQWRSNPPTFGGGTKLEIK
notes: mouse hybridoma mAb; VH/VL only; also called 2507B3G8
For B4, the binding result in the test with 82-96aa, with 91-105aa, with 118-132aa, with 1-14aa, with 1-15aa and with 10-24aa was “no binding (tested: supernatant 1/100)” each time. The binding result is reported as “no binding (tested: supernatant 1/100)” in the test with 46-60aa and “binds” in the test with 127-140aa.
